Assay results as given in US20210230266A1 (SINGAPORE HEALTH SERVICES PTE, published 2021).
Where a chain is given by its changes, count along the chain named.

T1: Human IL-11 (human, UniProt P20809 22-199)
T1 construct: Recombinant human IL-11 (GenScript Cat. No. Z03108-1) or IL-11 secreted by human cells; the mature form is said to have 178 residues; also called recombinant human IL-11; endogenously produced IL-11
T1 sequence: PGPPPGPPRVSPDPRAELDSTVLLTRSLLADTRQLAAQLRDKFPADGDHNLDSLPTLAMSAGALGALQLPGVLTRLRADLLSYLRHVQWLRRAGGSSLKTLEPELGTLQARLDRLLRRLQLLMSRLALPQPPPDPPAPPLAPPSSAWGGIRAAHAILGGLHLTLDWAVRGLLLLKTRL

T2: Mouse IL-11 (mouse, UniProt P47873 22-199, limits assumed)
T2 construct: also called murine IL-11; recombinant murine IL-11
T2 sequence (looked up): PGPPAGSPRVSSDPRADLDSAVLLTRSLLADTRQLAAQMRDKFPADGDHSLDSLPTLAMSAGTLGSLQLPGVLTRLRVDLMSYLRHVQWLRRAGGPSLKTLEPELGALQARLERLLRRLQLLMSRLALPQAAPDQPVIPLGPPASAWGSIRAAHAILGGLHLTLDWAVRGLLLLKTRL

B1: YU112-G06 (antibody)
chain: QVQLQESGGGVVQPGRSLRLSCAASGFTFSSYGMHWVRQAPGKGLEWVAVISYDGSNKYYADSVKGRFTISRDNSKNTLYLQMNSLRAEDTAVYYCAKIGATDPLDYWGQGTLVTVSSGSASAPKLEEGEFSEARVQSALTQPRSVSGSPGQSVTISCTGTISDVGGYNYVSWYQQHPGKAPKLMIYDVTKRRSGVPDRFSGSKSGNTASLTISGLQAEDEAGYYCSSYAGGYTWVFGGGTELTVL
B2: YU100-A11 (antibody)
chain: B1 chain with Q1E, E6Q, I162S, T190S, R193P, G223D, S227C, G232S, E242K
B3: YU100-A10 (antibody)
chain: EVQLVESGGGVVQPGRSLRLSCAASGFTFSSYGMHWVRQAPGKGLEWVAVISYDGSNKYYADSVKGRFTISRDNSKNTLYLQMNSLRAEDTAVYYCAKIGATDPLDYWGQGTLVTVSSGSASAPKLEEGEFSEARVLPVLTQPASVSGSPGQSITISCTGTSSDVGAYNYVSWYQQHPGKAPELMIYDVSNRPSGVSNRFSGSKSGNTASLTISGLQPEDEADYYCSSFTTSIAWVFGGGTKLTVL
B4: YU112-H02 (antibody)
chain: QVQLVESGGGVVQPGRSLRLSCAASGFTFSSYGMHWVRQAPGKGLEWVAVISYDGSNKYYADSVKGRFTISRDNSKNTLYLQMNSLRAEDTAVYYCAKLSGPNGVDYWGQGTLVTVSSGSASAPKLEEGEFSEARVQPVLTQPRSVSGSPGQSVTISCTGTSSDVGGYNYVSWYQQHPGKAPKVMIYDVSKRPSGVPDRFSGSKSGNTASLTISGLQAEDEADYYCCSYAGSYTWVFGGGTKLTVL
B5: YU112-H01 (antibody)
chain: QVQLVESGGGVVQPGRSLRLSCAASGFTFGSYGMHWVRQAPGKGLEWVAVISYDGSNKYYADSVKGRFTISRDNSKNTLYLQMNSLRAEDTAVYYCAKGSYYFDYWGQGTLVTVSSGSASAPKLEEGEFSEARVETTLTQSPGTLSLSPGERATLSCRASQSVSSSYLAWYQQKPGQAPRLLIYGASSRATGIPDRFSGSGSGTDFTLTISSLQPDDFATYYCQQSYSTPTWTFGQGTKVEIK
B6: YU100-A12 (antibody)
chain: QVQLVESGGGVVQPGRSLRLSCAASGFTFSSYGMHWVRQAPGKGLEWVAVISYDGSNKYYADSVKGRFTISRDNSKNTLYLQMNSLRAEDTAVYYCAKIGATDPLDYWGQGTLVTVSSGSASAPKLEEGEFSEARVLPVLTQPRSVSGSPGQSVTISCTGTSSDVGGYNYVSWYQQHPGKAPKLMIYDVSKRPSGVPDRFSGSKSGDTASLTISGLQAEDEADYYCSSYAGSYTWVFGGGTKLTVL

biological target: T1, Human IL-11; assay: ELISA on coated recombinant human IL-11 (100 ng/well), scFv-Fc
Method: The light chain shuffled anti-IL-11 antibodies were analysed to determine the EC50 for binding to human IL-11 by ELISA according to standard methods. Briefly, wells of microtiter plates were coated with recombinant human IL-11 (100 ng/well), scFv-Fc comprising the VH and VL domains of the clones were added in a dilution series and antibody binding was detected using a polyclonal antibody detection system.

Row | Binder | EC50
1 | B1 | 0.017 µg/mL
2 | B2 | 0.02 µg/mL
3 | B3 | 0.023 µg/mL
4 | B4 | 0.02 µg/mL
5 | B5 | 0.02 µg/mL
6 | B6 | 0.023 µg/mL

biological target: T1, Human IL-11; assay: ELISA
Method: (§1) The soluble scFv were produced by recombinant expression in E. coli, and analysed for their ability to bind to human IL-11 and murine IL-11 by ELISA. Briefly, the respective antigen was coated to wells of an ELISA plate, the cell culture supernatant containing the respective scFv was added at a 1:2 dilution, and binding was detected.

Row | Binder | hIL11 - average signal
7 | B1 | 0.664
8 | B2 | 0.333
9 | B3 | 0.443
10 | B4 | 0.606
11 | B5 | 1.23
12 | B6 | 0.32

biological target: T2, Mouse IL-11; assay: ELISA
Method: as §1

Row | Binder | mIL11 - average signal
13 | B1 | 0.762
14 | B2 | 0.372
15 | B3 | 0.54
16 | B4 | 0.785
17 | B5 | 1.18
18 | B6 | 0.388

biological target: T1, Human IL-11; assay: cell-based or functional assay

Row | Binder | MMP2 production, Experiment 1 (human atrial fibroblasts + TGFB1) | MMP2 production, Experiment 2 (human atrial fibroblasts + TGFB1)
19 | B1 | 55 ng/mL | 47.8 ng/mL
20 | B2 | 51.6 ng/mL | 45.7 ng/mL
21 | B3 | 52.1 ng/mL | 50.1 ng/mL
22 | B4 | 65.3 ng/mL | 58 ng/mL
23 | B5 | 51.9 ng/mL | 47.7 ng/mL
24 | B6 | 59.5 ng/mL | 50.4 ng/mL
